Measured values taken from patent US20050079574A1.
Substitutions are numbered along the chain they refer to. Blank lines part the entries; values can stand above or below the binder they belong to.

Target: IGF1 (Insulin-like Growth Factor 1) (UniProt P05019)
Experiment: IC50 (uM) column of the drawn table; phage clone of the F(ab')2 L3/H3 library on the 4D5 template, IC50 analysed as in Sidhu et al. (P-0517); source oligo (DVK)7

IC50: 0.3 µM
B1: SEQ ID NO 69 (antibody, part only; not given: template light chain, V domains shown, part only)
VH: EVQLVESGGGLVQPGGSLRLSCAASGFNIKDTYIHWVRQAPGKGLEWVARIYPTNGYTRYADSVKGRFTISADTSKNTAYLQMNSLRAEDTAVYYCSRSRGWWTAAMDVWGQGTLVTVSS

IC50: 15 µM
B2: SEQ ID NO 70 (antibody, part only; not given: template light chain, V domains shown, part only)
VH: B1 VH with S99A, R100S, G101R, W102D, T104Y, A105G
